In patent publication US20040049009A1, “Methods for improving the antagonistic/agonistic properties of peptidic antagonists/agonists of the corticotropin-releasing factor receptor (crfr)” (priority 2000, published 2004):

What was measured:
[1] = molecular target: mouse CRF receptor, type 2β (mouse) (UniProt Q60748)
[2] = molecular target: rat CRF receptor, type 1 (rat) (UniProt P35353); experiment: SPA competition with 0.05 nM [125I-Tyr0]h/rCRF, HEK-293 membranes; 95% CI (0.65-1.4)
Target sequence in this assay (P35353 24-415): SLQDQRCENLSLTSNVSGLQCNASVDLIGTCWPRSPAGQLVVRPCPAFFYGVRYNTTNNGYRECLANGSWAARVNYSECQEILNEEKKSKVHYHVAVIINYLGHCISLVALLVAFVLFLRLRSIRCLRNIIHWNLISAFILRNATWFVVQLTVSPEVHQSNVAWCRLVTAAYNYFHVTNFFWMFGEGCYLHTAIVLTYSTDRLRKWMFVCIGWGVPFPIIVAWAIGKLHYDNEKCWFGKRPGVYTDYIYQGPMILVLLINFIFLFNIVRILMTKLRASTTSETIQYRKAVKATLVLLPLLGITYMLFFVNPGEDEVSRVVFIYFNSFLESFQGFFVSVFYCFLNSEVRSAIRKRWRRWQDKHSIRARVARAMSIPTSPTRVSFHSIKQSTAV

[3] = molecular target: mouse CRF receptor, type 2β (mouse) (UniProt Q60748); experiment: SPA competition with 0.05 nM [125I-Tyr0]Svg, HEK-293 membranes; 95% CI (110-300)
[4] = molecular target: T1, rat CRF binding protein C-terminally fused with a His6 sequence (rat) (UniProt P24388); experiment: SPA competition with 0.1 nM [125I-Tyr0]h/rCRF, His-tagged rCRFBP; 95% CI (70-90)
T1 sequence: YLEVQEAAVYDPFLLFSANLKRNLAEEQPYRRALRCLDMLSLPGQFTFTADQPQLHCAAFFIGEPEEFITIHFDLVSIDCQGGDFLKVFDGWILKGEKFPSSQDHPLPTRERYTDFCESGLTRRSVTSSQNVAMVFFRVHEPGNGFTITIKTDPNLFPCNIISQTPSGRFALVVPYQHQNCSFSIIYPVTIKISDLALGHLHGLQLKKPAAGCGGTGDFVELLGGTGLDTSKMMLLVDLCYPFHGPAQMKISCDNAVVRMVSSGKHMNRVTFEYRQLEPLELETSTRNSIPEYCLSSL

[5] = molecular target: rat CRF receptor, type 1 (rat) (UniProt P35353); experiment: SPA competition with 0.05 nM [125I-Tyr0]h/rCRF, HEK-293 membranes; 95% CI (0.44-0.79)
[6] = molecular target: mouse CRF receptor, type 2β (mouse) (UniProt Q60748); experiment: SPA competition with 0.05 nM [125I-Tyr0]Svg, HEK-293 membranes; 95% CI (15-18)
[7] = molecular target: T1, rat CRF binding protein C-terminally fused with a His6 sequence (rat); experiment: SPA competition with 0.1 nM [125I-Tyr0]h/rCRF, His-tagged rCRFBP; 95% CI (0.9-1.0)
[8] = molecular target: rat CRF receptor, type 1 (rat) (UniProt P35353)
[9] = molecular target: T1, rat CRF binding protein C-terminally fused with a His6 sequence (rat); experiment: SPA competition with 0.1 nM [125I-Tyr0]h/rCRF, His-tagged rCRFBP; 95% CI (0.60-1.3)
[10] = molecular target: mouse CRF receptor, type 2β (mouse) (UniProt Q60748); experiment: SPA competition with 0.05 nM [125I-Tyr0]Svg, HEK-293 membranes; 95% CI (0.24-1.36)
[11] = molecular target: T1, rat CRF binding protein C-terminally fused with a His6 sequence (rat); experiment: SPA competition with 0.1 nM [125I-Tyr0]h/rCRF, His-tagged rCRFBP; 95% CI (76-104)

Sequence of ovine corticotropin-releasing factor (ligand) (P01142 148-188): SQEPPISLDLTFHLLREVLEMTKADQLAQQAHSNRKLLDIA

Substance | Rel. intrinsic activity [%] [1] | Rel. potency of antagonist [%] [1] | Rel. intrinsic activity [%] [8] | Rel. potency of antagonist [%] [8] | other results
ovine corticotropin-releasing factor (ligand) | – | – | – | – | IC50 [2]: 1 nM; IC50 [3]: 200 nM
[Glu^22]h/rCRF (from UniProt P06850) (peptide) | – | – | – | – | IC50 [4]: 80 nM; IC50 [5]: 0.61 nM; IC50 [6]: 16 nM
[Ala^21]Svg (from UniProt P01144) (peptide) | – | – | – | – | IC50 [9]: 0.94 nM
anti-sauvagine-30 (peptide) | 1% | 99% | 6.5% | 2% | IC50 [10]: 0.3 nM

The next lines start with results.

Rel. intrinsic activity [%] [1] | Rel. potency of antagonist [%] [1] | Rel. intrinsic activity [%] [8] | Rel. potency of antagonist [%] [8] | Substance | other results
1% | 97% | – | – | [Glu^11,16]Ast (peptide) | –
1.4% | 97% | 19% | 14% | α-helical CRF^9-41 (peptide) | IC50 [7]: 1 nM
1.1% | 99% | 9.8% | 86% | astressin (peptide) | IC50 [11]: 90 nM
